US20020164620

Legend:
[1] = biological target: T1, SCC1-myc (in vitro translated human SCC1 with myc tag) (UniProt O60216)
T1 sequence: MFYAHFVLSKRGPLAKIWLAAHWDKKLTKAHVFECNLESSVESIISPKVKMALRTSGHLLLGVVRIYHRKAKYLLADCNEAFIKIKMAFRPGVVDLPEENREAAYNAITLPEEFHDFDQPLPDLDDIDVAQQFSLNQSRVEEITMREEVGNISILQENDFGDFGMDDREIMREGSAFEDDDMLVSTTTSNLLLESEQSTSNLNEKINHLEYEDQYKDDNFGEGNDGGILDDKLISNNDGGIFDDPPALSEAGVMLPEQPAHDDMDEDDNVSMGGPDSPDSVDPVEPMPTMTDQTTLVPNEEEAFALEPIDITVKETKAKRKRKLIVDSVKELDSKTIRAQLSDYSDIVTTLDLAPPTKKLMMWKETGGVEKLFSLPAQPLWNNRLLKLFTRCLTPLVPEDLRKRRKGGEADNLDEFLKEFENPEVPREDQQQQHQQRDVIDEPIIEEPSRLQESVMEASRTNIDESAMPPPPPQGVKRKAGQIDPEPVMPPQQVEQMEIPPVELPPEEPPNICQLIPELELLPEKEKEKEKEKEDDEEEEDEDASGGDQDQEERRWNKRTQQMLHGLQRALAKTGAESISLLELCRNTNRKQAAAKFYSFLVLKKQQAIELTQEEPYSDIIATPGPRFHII

Bio-SVEQGR-amk = test system: T2, Bio-SVEQGR-amk
T2 sequence: SVEQGR

[2] = biological target: T3, recombinant human securin, wildtype, expressed in E. coli (UniProt O95997)
T3 sequence: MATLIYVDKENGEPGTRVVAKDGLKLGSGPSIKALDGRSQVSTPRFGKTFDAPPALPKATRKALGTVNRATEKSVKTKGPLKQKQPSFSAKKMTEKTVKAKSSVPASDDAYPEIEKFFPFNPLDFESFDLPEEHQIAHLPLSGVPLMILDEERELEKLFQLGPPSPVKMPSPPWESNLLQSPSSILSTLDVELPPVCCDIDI

[3] = biological target: T4, destruction box deleted form of securin (UniProt O95997)
T4 sequence: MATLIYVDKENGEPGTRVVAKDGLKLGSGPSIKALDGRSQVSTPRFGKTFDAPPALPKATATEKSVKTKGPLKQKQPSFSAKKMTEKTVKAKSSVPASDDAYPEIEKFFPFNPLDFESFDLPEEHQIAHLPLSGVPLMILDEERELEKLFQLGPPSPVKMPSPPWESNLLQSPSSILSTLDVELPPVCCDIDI

Bio-SVEQGR-cmk = test system: T5, Bio-SVEQGR-cmk
T5 sequence: SVEQGR

[4] = test system: separase-myc (in vitro translated separase construct with one myc epitope at its C-terminus)

Substance | cleavage of SCC1-myc (anti-myc immunoblot, FIG. 6B) [1] | cleavage of SCC1-myc by separase (anti-myc immunoblot) (Bio-SVEQGR-amk) | cleavage of SCC1-myc by separase (anti-myc immunoblot, FIG. 4C lane 2i) (Bio-SVEQGR-amk) | cleavage of SCC1-myc by separase (anti-myc immunoblot, FIG. 4C lane 3i) (Bio-SVEQGR-amk) | cleavage of SCC1-myc by separase (anti-myc immunoblot) [2] | cleavage of SCC1-myc (anti-myc immunoblot) [1] | cleavage of SCC1-myc by separase (anti-myc immunoblot) [3] | cleavage of SCC1-myc by separase (anti-myc immunoblot) (Bio-SVEQGR-cmk) | cleavage of in vitro translated separase-myc (anti-myc immunoblot, FIG. 5) [4]
N-terminally FLAG-tagged full length human separase expressed in HeLa cells, anti-FLAG immunoprecipitate activated in mitotic Xenopus egg extract | ectopically expressed separase is able to cleave human SCC1 | – | – | – | – | – | – | – | –
cleaved form of human separase (separase immunoprecipitate from nocodazole-arrested HeLa cells, activated in mitotic Xenopus egg extract) | – | both inhibitors are able to block the ability of separase to cleave SCC1 | separase was unable to cleave SCC1 | This treatment inhibited SCC1 cleavage by separase | no cleavage of SCC1 was detected | it is the cleaved form of separase that is the active protease which cleaves SCC1, unless it is inhibited by the rebinding of securin | Identical results were obtained with two different forms of securin, the wildtype protein (WT-securin) and a form that can not be destroyed by ubiquitin-dependent proteolysis (DB-securin | both inhibitors are able to block the ability of separase to cleave SCC1 | in vitro translated separase was cleaved when it was incubated with active separase obtained by incubation of separase immunoprecipitates in mitotic Xenopus egg extracts
